Reference: the Human Domainome abundance scans (Beltran et al. 2025)
± gives the uncertainty stated by the source.

B1: Cullin-9, residues 2234 to 2275; numbered along this chain, Q8IWT3 (parent)
chain: KRCPSCQAPIEKNEGCLHMTCAKCNHGFCWRCLKSWKPNHKD

Variants of: B1
Experiment: abundance fitness (aPCA) (normalised: wild type 0, dead -1); higher = more abundant; growth selection in yeast, the domain comes from the species named
Settings: Homo sapiens

For KRCPSCQAPIEKNEGCLHMTCGKCNHGFCWRCLKSWKPNHKD, which abundance fitness is on record?
The abundance fitness was -0.254 ± 0.11.

For KRCPSCQAPIEKNEGCLHMTCEKCNHGFCWRCLKSWKPNHKD, which abundance fitness is on record?
The abundance fitness was 0.029 ± 0.11.

Which abundance fitness does the source give for KRCPSCQAPIEKNEGCLHMTCDKCNHGFCWRCLKSWKPNHKD here?
Its abundance fitness is 0.229 ± 0.19.

For KRCPSCQAPIEKNEGCLHMTCMKCNHGFCWRCLKSWKPNHKD, which abundance fitness is on record?
Its abundance fitness is 0.082 ± 0.16.

With KRCPSCQAPIEKNEGCLHMTCPKCNHGFCWRCLKSWKPNHKD as the variant, how does the abundance fitness read?
Its abundance fitness is 0.149 ± 0.13.

For KRCPSCQAPIEKNEGCLHMTCSKCNHGFCWRCLKSWKPNHKD, which abundance fitness is on record?
The abundance fitness was -0.202 ± 0.12.

Which abundance fitness does the source give for KRCPSCQAPIEKNEGCLHMTCIKCNHGFCWRCLKSWKPNHKD here?
The abundance fitness was -0.025 ± 0.14.

With KRCPSCQAPIEKNEGCLHMTCWKCNHGFCWRCLKSWKPNHKD as the variant, how does the abundance fitness read?
The abundance fitness was -0.096 ± 0.11.

With KRCPSCQAPIEKNEGCLHMTCVKCNHGFCWRCLKSWKPNHKD as the variant, how does the abundance fitness read?
The abundance fitness was -0.306 ± 0.12.

With KRCPSCQAPIEKNEGCLHMTCKKCNHGFCWRCLKSWKPNHKD as the variant, how does the abundance fitness read?
The abundance fitness was -0.333 ± 0.17.

With KRCPSCQAPIEKNEGCLHMTCYKCNHGFCWRCLKSWKPNHKD as the variant, how does the abundance fitness read?
Its abundance fitness is 0.082 ± 0.21.

For KRCPSCQAPIEKNEGCLHMTCRKCNHGFCWRCLKSWKPNHKD, which abundance fitness is on record?
Its abundance fitness is -0.242 ± 0.1.

With KRCPSCQAPIEKNEGCLHMTCLKCNHGFCWRCLKSWKPNHKD as the variant, how does the abundance fitness read?
The abundance fitness was -0.282 ± 0.13.

With KRCPSCQAPIEKNEGCLHMTCAECNHGFCWRCLKSWKPNHKD as the variant, how does the abundance fitness read?
The abundance fitness was -0.209 ± 0.097.

With KRCPSCQAPIEKNEGCLHMTCANCNHGFCWRCLKSWKPNHKD as the variant, how does the abundance fitness read?
Its abundance fitness is -0.184 ± 0.23.

Which abundance fitness does the source give for KRCPSCQAPIEKNEGCLHMTCAPCNHGFCWRCLKSWKPNHKD here?
Its abundance fitness is -0.695 ± 0.12.

With KRCPSCQAPIEKNEGCLHMTCARCNHGFCWRCLKSWKPNHKD as the variant, how does the abundance fitness read?
Its abundance fitness is -0.015 ± 0.077.

With KRCPSCQAPIEKNEGCLHMTCADCNHGFCWRCLKSWKPNHKD as the variant, how does the abundance fitness read?
Its abundance fitness is -0.239 ± 0.32.

For KRCPSCQAPIEKNEGCLHMTCAMCNHGFCWRCLKSWKPNHKD, which abundance fitness is on record?
The abundance fitness was -0.323 ± 0.14.

With KRCPSCQAPIEKNEGCLHMTCAGCNHGFCWRCLKSWKPNHKD as the variant, how does the abundance fitness read?
The abundance fitness was -0.262 ± 0.08.

For KRCPSCQAPIEKNEGCLHMTCAHCNHGFCWRCLKSWKPNHKD, which abundance fitness is on record?
The abundance fitness was -0.223 ± 0.19.

Which abundance fitness does the source give for KRCPSCQAPIEKNEGCLHMTCAFCNHGFCWRCLKSWKPNHKD here?
Its abundance fitness is 0.02 ± 0.22.

With KRCPSCQAPIEKNEGCLHMTCAVCNHGFCWRCLKSWKPNHKD as the variant, how does the abundance fitness read?
The abundance fitness was -0.293 ± 0.091.

Which abundance fitness does the source give for KRCPSCQAPIEKNEGCLHMTCAICNHGFCWRCLKSWKPNHKD here?
Its abundance fitness is -0.437 ± 0.14.

For KRCPSCQAPIEKNEGCLHMTCAACNHGFCWRCLKSWKPNHKD, which abundance fitness is on record?
The abundance fitness was -0.102 ± 0.085.

For KRCPSCQAPIEKNEGCLHMTCASCNHGFCWRCLKSWKPNHKD, which abundance fitness is on record?
Its abundance fitness is -0.174 ± 0.1.

For KRCPSCQAPIEKNEGCLHMTCALCNHGFCWRCLKSWKPNHKD, which abundance fitness is on record?
Its abundance fitness is -0.325 ± 0.092.

Which abundance fitness does the source give for KRCPSCQAPIEKNEGCLHMTCATCNHGFCWRCLKSWKPNHKD here?
Its abundance fitness is -0.115 ± 0.1.

For KRCPSCQAPIEKNEGCLHMTCAQCNHGFCWRCLKSWKPNHKD, which abundance fitness is on record?
Its abundance fitness is -0.454 ± 0.14.

For KRCPSCQAPIEKNEGCLHMTCAKWNHGFCWRCLKSWKPNHKD, which abundance fitness is on record?
The abundance fitness was -0.784 ± 0.11.

Which abundance fitness does the source give for KRCPSCQAPIEKNEGCLHMTCAKGNHGFCWRCLKSWKPNHKD here?
Its abundance fitness is -0.268 ± 0.074.

With KRCPSCQAPIEKNEGCLHMTCAKDNHGFCWRCLKSWKPNHKD as the variant, how does the abundance fitness read?
The abundance fitness was -0.045 ± 0.14.

With KRCPSCQAPIEKNEGCLHMTCAKHNHGFCWRCLKSWKPNHKD as the variant, how does the abundance fitness read?
Its abundance fitness is -0.382 ± 0.33.

For KRCPSCQAPIEKNEGCLHMTCAKKNHGFCWRCLKSWKPNHKD, which abundance fitness is on record?
Its abundance fitness is -0.379 ± 0.13.

For KRCPSCQAPIEKNEGCLHMTCAKLNHGFCWRCLKSWKPNHKD, which abundance fitness is on record?
The abundance fitness was -0.454 ± 0.093.

Which abundance fitness does the source give for KRCPSCQAPIEKNEGCLHMTCAKANHGFCWRCLKSWKPNHKD here?
Its abundance fitness is -0.45 ± 0.094.

For KRCPSCQAPIEKNEGCLHMTCAKRNHGFCWRCLKSWKPNHKD, which abundance fitness is on record?
The abundance fitness was -0.594 ± 0.086.

With KRCPSCQAPIEKNEGCLHMTCAKMNHGFCWRCLKSWKPNHKD as the variant, how does the abundance fitness read?
Its abundance fitness is -0.574 ± 0.2.

With KRCPSCQAPIEKNEGCLHMTCAKTNHGFCWRCLKSWKPNHKD as the variant, how does the abundance fitness read?
The abundance fitness was -0.735 ± 0.19.

With KRCPSCQAPIEKNEGCLHMTCAKSNHGFCWRCLKSWKPNHKD as the variant, how does the abundance fitness read?
Its abundance fitness is -0.384 ± 0.12.

With KRCPSCQAPIEKNEGCLHMTCAKENHGFCWRCLKSWKPNHKD as the variant, how does the abundance fitness read?
Its abundance fitness is -0.129 ± 0.088.

With KRCPSCQAPIEKNEGCLHMTCAKFNHGFCWRCLKSWKPNHKD as the variant, how does the abundance fitness read?
Its abundance fitness is -0.534 ± 0.21.

Which abundance fitness does the source give for KRCPSCQAPIEKNEGCLHMTCAKPNHGFCWRCLKSWKPNHKD here?
Its abundance fitness is -0.249 ± 0.1.

Which abundance fitness does the source give for KRCPSCQAPIEKNEGCLHMTRAKCNHGFCWRCLKSWKPNHKD here?
Its abundance fitness is -0.866 ± 0.094.

With KRCPSCQAPIEKNEGCLHMTGAKCNHGFCWRCLKSWKPNHKD as the variant, how does the abundance fitness read?
The abundance fitness was -0.482 ± 0.078.

For KRCPSCQAPIEKNEGCLHMTVAKCNHGFCWRCLKSWKPNHKD, which abundance fitness is on record?
Its abundance fitness is -0.677 ± 0.095.

Which abundance fitness does the source give for KRCPSCQAPIEKNEGCLHMTQAKCNHGFCWRCLKSWKPNHKD here?
Its abundance fitness is -0.537 ± 0.12.

For KRCPSCQAPIEKNEGCLHMTMAKCNHGFCWRCLKSWKPNHKD, which abundance fitness is on record?
The abundance fitness was -0.962 ± 0.16.

Which abundance fitness does the source give for KRCPSCQAPIEKNEGCLHMTIAKCNHGFCWRCLKSWKPNHKD here?
The abundance fitness was -0.968 ± 0.25.

Which abundance fitness does the source give for KRCPSCQAPIEKNEGCLHMTPAKCNHGFCWRCLKSWKPNHKD here?
Its abundance fitness is -0.612 ± 0.12.

With KRCPSCQAPIEKNEGCLHMTDAKCNHGFCWRCLKSWKPNHKD as the variant, how does the abundance fitness read?
The abundance fitness was -0.239 ± 0.13.

With KRCPSCQAPIEKNEGCLHMTYAKCNHGFCWRCLKSWKPNHKD as the variant, how does the abundance fitness read?
The abundance fitness was -0.465 ± 0.2.

Which abundance fitness does the source give for KRCPSCQAPIEKNEGCLHMTEAKCNHGFCWRCLKSWKPNHKD here?
Its abundance fitness is -0.137 ± 0.096.

With KRCPSCQAPIEKNEGCLHMTFAKCNHGFCWRCLKSWKPNHKD as the variant, how does the abundance fitness read?
Its abundance fitness is -0.917 ± 0.33.

Which abundance fitness does the source give for KRCPSCQAPIEKNEGCLHMTNAKCNHGFCWRCLKSWKPNHKD here?
The abundance fitness was -0.462 ± 0.21.

With KRCPSCQAPIEKNEGCLHMTKAKCNHGFCWRCLKSWKPNHKD as the variant, how does the abundance fitness read?
Its abundance fitness is -0.489 ± 0.12.

For KRCPSCQAPIEKNEGCLHMTHAKCNHGFCWRCLKSWKPNHKD, which abundance fitness is on record?
Its abundance fitness is -1.16 ± 0.29.

With KRCPSCQAPIEKNEGCLHMTWAKCNHGFCWRCLKSWKPNHKD as the variant, how does the abundance fitness read?
Its abundance fitness is -0.823 ± 0.12.

Which abundance fitness does the source give for KRCPSCQAPIEKNEGCLHMTCAKCIHGFCWRCLKSWKPNHKD here?
The abundance fitness was -0.121 ± 0.22.

For KRCPSCQAPIEKNEGCLHMTCAKCEHGFCWRCLKSWKPNHKD, which abundance fitness is on record?
Its abundance fitness is -0.045 ± 0.087.
